The values that follow come from patent US20200199241A1 (Chugai, published 2020).

In experiment [1] the target is T1, human FcγRIa (human, UniProt P12314 16-292, limits assumed).
T1 construct: also called hFcgRIa; hFcgRI
The experiment in a line: SPR (Biacore T100/T200): FcγR injected over the antibody held by human FcRn immobilised on a CM4 chip (simultaneous binding), pH 7.4, 25 C.
Description: (§1) An evaluation was made as to whether or not human or mouse FcRn and human or mouse FcγRs simultaneously bind to an antigen-binding molecule using the BIACORE™ T100 or T200 surface plasmon resonance system (GE Healthcare). The antigen-binding molecule being tested was captured by human or mouse FcRn immobilized on the CM4 Sensor Chip (GE Healthcare) by amine coupling. Next, diluted human or mouse FcγRs and a running buffer used as a blank were injected to allow the human or mouse FcγRs to interact with the antigen-binding molecule bound to FcRn on the sensor chip. A buffer consisting of 50 mmol/L sodium phosphate, 150 mmol/L NaCl and 0.05% (w/v) polysorbate 20 (Tween 20®) (pH 7.4) was used for the running buffer, and this buffer was also used to dilute the FcγRs. 10 mmol/L Tris-HCl (pH 9.5) was used to regenerate the sensor chip. All binding measurements were carried out at 25° C.

Experiment [2] addresses T2, mouse FcγRIII (mouse, UniProt P08508 31-215).
T2 construct: bought; also called mFcgRIII; mFcgR III
T2 sequence (looked up): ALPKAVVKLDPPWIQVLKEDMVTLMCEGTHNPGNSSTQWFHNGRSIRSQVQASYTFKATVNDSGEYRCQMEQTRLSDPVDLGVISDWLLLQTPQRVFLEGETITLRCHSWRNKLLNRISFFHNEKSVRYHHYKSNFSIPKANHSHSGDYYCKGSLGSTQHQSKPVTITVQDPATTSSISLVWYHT
The description is as above.
Description: as §1

Experiment [3] deals with T3, human FcγRIIb (human, UniProt P31994 43-217, limits assumed).
T3 construct: also called hFcgRIIb; FcγIIB
T3 sequence: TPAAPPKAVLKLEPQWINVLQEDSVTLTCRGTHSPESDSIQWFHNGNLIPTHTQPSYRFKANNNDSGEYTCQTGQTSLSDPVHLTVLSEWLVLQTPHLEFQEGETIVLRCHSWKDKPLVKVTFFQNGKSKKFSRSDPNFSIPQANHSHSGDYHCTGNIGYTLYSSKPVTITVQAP
The experiment is described as above.
Description: as §1

For experiment [4], the target named is T4, mouse FcγRIV (mouse, UniProt A0A0B4J1G0 21-203).
T4 construct: bought; also called mFcgRIV; mFcgR IV; the vendor's purification tag not given
T4 sequence: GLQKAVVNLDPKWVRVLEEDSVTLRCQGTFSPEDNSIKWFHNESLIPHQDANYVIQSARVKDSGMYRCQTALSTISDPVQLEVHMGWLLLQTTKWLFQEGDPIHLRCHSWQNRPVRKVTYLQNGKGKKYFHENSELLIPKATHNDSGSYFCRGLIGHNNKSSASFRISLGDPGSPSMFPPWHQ
The description is as above.

Experiment [5] addresses T5, mouse FcγRIIb (mouse, UniProt P08101 30-207, limits assumed).
T5 construct: bought; also called mFcgRIIb; mFcgR IIb
T5 sequence (looked up): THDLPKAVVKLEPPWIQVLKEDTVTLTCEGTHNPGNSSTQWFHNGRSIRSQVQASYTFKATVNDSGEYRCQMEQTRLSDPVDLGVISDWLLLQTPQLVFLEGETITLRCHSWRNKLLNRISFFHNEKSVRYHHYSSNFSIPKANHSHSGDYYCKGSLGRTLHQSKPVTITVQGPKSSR
Described as above.
Description: as §1

In experiment [6] the target is T6, mouse FcγRI (mouse, UniProt P26151 25-297).
T6 construct: bought; also called mFcgRI; mFcgR 1
T6 sequence (looked up): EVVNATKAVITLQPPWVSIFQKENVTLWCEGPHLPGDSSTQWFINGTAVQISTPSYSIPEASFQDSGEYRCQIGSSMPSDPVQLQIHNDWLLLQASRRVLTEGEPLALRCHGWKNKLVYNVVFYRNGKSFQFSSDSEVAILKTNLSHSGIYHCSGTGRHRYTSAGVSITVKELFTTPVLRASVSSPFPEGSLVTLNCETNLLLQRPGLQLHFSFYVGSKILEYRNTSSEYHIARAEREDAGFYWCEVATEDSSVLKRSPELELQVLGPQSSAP
The experiment is described as above.
Description: as §1

In experiment [7] the target is T2, mouse FcγRIII. The experiment in a line: SPR (Biacore T100/T200): FcγR injected over the antibody held by mouse FcRn immobilised on a CM4 chip (simultaneous binding), pH 7.4, 25 C. Background: SPR reads the build-up and loss of mass on a sensor chip optically.
Description: as §1
Experiment [8] deals with T4, mouse FcγRIV. The experiment is described as above.
Description: as §1
Experiment [9] concerns the target T6, mouse FcγRI. Described as above.
Description: as §1
For experiment [10], the target named is T5, mouse FcγRIIb. The experiment is described as above.
Description: as §1
Experiment [11] concerns the target T2, mouse FcγRIII. Described as above. The source holds these as a separate data set.
Description: as §1
In experiment [12] the target is T5, mouse FcγRIIb. The experiment is described as above. This is another data set of the same source.
Description: as §1
The target in experiment [13] is T4, mouse FcγRIV. Description: SPR (Biacore T100/T200): FcγR injected over the antibody held by mouse FcRn immobilised on a CM4 chip, pH 7.4, 25 C.
Description: as §1
The target of experiment [14] is T6, mouse FcγRI. The experiment is described as above.
Description: as §1

T1 sequence (P12314 16-292 limits assumed): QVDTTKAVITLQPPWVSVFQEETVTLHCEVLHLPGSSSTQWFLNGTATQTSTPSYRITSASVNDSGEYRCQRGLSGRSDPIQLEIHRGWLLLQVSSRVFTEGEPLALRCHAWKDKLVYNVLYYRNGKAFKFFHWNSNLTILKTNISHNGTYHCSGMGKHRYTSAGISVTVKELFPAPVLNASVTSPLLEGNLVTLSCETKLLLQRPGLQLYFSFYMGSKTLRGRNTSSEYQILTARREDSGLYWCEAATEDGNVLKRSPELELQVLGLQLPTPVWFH

B1: Fv4-IgG1-F157 (VH3-IgG1-F157 and VL3-CK) (antibody)
heavy: QVQLQESGPGLVKPSETLSLTCAVSGHSISHDHAWSWVRQPPGEGLEWIGFISYSGITNYNPSLQGRVTISRDNSKNTLYLQMNSLRAEDTAVYYCARSLARTTAMDYWGEGTLVTVSSASTKGPSVFPLAPSSKSTSGGTAALGCLVKDYFPEPVTVSWNSGALTSGVHTFPAVLQSSGLYSLSSVVTVPSSSLGTQTYICNVNHKPSNTKVDKKVEPKSCDKTHTCPPCPAPELLGGPSVFLFPPKPKDTLMISRTAEVTCVVVDVSHEDPEVKFNWYVDGVEVHNAKTKPREEQYNSTYRVVSVLTPLHQDWLNGKEYKCKVSNKALPAPIEKTISKAKGQPREPQVYTLPPSRDELTKNQVSLTCLVKGFYPSDIAVEWESNGQPENNYKTTPPVLDSDGSFFLYSKLTVDKSRWQQGNVFSCSVLHEALHYHYTQKSLSLSP
light: DIQMTQSPSSLSASVGDSVTITCQASTDISSHLNWYQQKPGKAPELLIYYGSHLLSGVPSRFSGSGSGTDFTFTISSLEAEDAATYYCGQGNRLPYTFGQGTKVEIERTVAAPSVFIFPPSDEQLKSGTASVVCLLNNFYPREAKVQWKVDNALQSGNSQESVTEQDSKDSTYSLSSTLTLSKADYEKHKVYACEVTHQGLSSPVTKSFNRGEC
notes: copies: 2 + 2
As to B1, the binding result in experiment [1], in experiment [2], in [3], in experiment [4], in [5] and in experiment [6] was “binds” each time.

B2: Fv4-IgG1-F20 (VH3-IgG1-F20 and VL3-CK) (antibody)
heavy: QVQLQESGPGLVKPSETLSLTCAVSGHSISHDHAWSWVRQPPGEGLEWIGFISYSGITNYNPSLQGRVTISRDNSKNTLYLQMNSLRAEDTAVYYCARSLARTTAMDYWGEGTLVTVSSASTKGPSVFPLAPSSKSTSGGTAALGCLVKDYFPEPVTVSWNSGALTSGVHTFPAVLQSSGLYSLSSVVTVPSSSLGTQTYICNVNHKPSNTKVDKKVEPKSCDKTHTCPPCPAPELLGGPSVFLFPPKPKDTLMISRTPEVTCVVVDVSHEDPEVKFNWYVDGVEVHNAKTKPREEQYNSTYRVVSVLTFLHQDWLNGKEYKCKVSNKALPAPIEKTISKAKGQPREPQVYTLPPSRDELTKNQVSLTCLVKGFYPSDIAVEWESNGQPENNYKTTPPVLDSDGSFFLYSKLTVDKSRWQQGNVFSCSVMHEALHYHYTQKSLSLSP
light: B1 light
notes: copies: 2 + 2
Take B2: the binding result in [7], in [8], in experiment [9] and in [10] was “binds” each time.

B3: mPM1-mIgG1-mF3 (mPM1H-mIgG1-mF3 and mPM1L-mk1) (antibody)
heavy: DVQLQESGPVLVKPSQSLSLTCTVTGYSITSDHAWSWIRQFPGNKLEWMGYISYSGITTYNPSLKSRISITRDTSKNQFFLQLNSVTTGDTSTYYCARSLARTTAMDYWGQGTSVTVSSAKTTPPSVYPLAPGSAAQTNSMVTLGCLVKGYFPEPVTVTWNSGSLSSGVHTFPAVLQSDLYTLSSSVTVPSSTWPSETVTCNVAHPASSTKVDKKIVPRDCGCKPCICTVPEVSSVFIFPPKPKDVLYITLEPKVTCVVVDISKDDPEVQFSWFVDDVEVHTAQTQPREEQFNSTFRSVSELPIMHQDWLNGKEFKCRVNSAAFPAPIEKTISKTKGRPKAPQVYTIPPPKEQMAKDKVSLTCMITDFFPEDITVEWQWNGQPAENYKNTQPIMDTDGSYFVYSKLNVQKSNWEAGNTFTCSVLHEGLKFHHTEKSLSHSPGK
light: DIQMTQTTSSLSASLGDRVTISCRASQDISSYLNWYQQKPDGTIKLLIYYTSRLHSGVPSRFSGSGSGTDYSLTINNLEQEDIATYFCQQGNTLPYTFGGGTKLEIKRADAAPTVSIFPPSSEQLTSGGASVVCFLNNFYPKDINVKWKIDGSERQNGVLNSWTDQDSKDSTYSMSSTLTLTKDEYERHNSYTCEATHKTSTSPIVKSFNRNEC
notes: copies: 2 + 2
As to B3, the binding result in experiment [11] was “binds”; in experiment [12], “binds”; in experiment [13] it was “no binding”; in [14], “no binding”.
